Source: patent US20170152307A1

Assays:
tau 194-212 (human) = assay: peptide ELISA
[1] = target: ptau 194-212 (pS202, pT205) (human); assay: peptide ELISA, biotinylated peptide on streptavidin plate, IgG titrated (Example 6)
[2] = target: ptau 194-212 (pS202, pT205) (human); assay: peptide ELISA, 1 ug/mL IgG
[3] = target: ptau 187-212 (A201) (human); assay: alanine-scan peptide ELISA, 1 ug/mL IgG
[4] = target: ptau 187-212 (A189) (human); assay: alanine-scan peptide ELISA, 1 ug/mL IgG
[5] = target: ptau 187-212 (A210) (human); assay: alanine-scan peptide ELISA, 1 ug/mL IgG
[6] = target: ptau 187-212 (A196) (human); assay: alanine-scan peptide ELISA, 1 ug/mL IgG
[7] = target: ptau 187-212 (A198) (human); assay: alanine-scan peptide ELISA, 1 ug/mL IgG
[8] = target: ptau 187-212 (A200) (human); assay: alanine-scan peptide ELISA, 1 ug/mL IgG
[9] = target: ptau 187-212 (A187) (human); assay: alanine-scan peptide ELISA, 1 ug/mL IgG
[10] = target: ptau 187-212 (A204) (human); assay: alanine-scan peptide ELISA, 1 ug/mL IgG
[11] = target: ptau 187-212 (A209) (human); assay: alanine-scan peptide ELISA, 1 ug/mL IgG
[12] = target: ptau 187-212 (A193) (human); assay: alanine-scan peptide ELISA, 1 ug/mL IgG
[13] = target: ptau 187-212 (A192) (human); assay: alanine-scan peptide ELISA, 1 ug/mL IgG
[14] = target: ptau 187-212 (A188) (human); assay: alanine-scan peptide ELISA, 1 ug/mL IgG
[15] = target: ptau 187-212 (A208) (human); assay: alanine-scan peptide ELISA, 1 ug/mL IgG
[16] = target: ptau 187-212 (A191) (human); assay: alanine-scan peptide ELISA, 1 ug/mL IgG
[17] = target: ptau 187-212 (A203) (human); assay: alanine-scan peptide ELISA, 1 ug/mL IgG
[18] = target: ptau 187-212 (A212) (human); assay: alanine-scan peptide ELISA, 1 ug/mL IgG
[19] = target: ptau 187-212 (A202) (human); assay: alanine-scan peptide ELISA, 1 ug/mL IgG
[20] = target: ptau 187-212 (A211) (human); assay: alanine-scan peptide ELISA, 1 ug/mL IgG
[21] = target: ptau 187-212 (A207) (human); assay: alanine-scan peptide ELISA, 1 ug/mL IgG
[22] = target: ptau 187-212 (A195) (human); assay: alanine-scan peptide ELISA, 1 ug/mL IgG
[23] = target: ptau 187-212 (A205) (human); assay: alanine-scan peptide ELISA, 1 ug/mL IgG
[24] = target: ptau 187-212 (A199) (human); assay: alanine-scan peptide ELISA, 1 ug/mL IgG
[25] = target: ptau 187-212 (A194) (human); assay: alanine-scan peptide ELISA, 1 ug/mL IgG
[26] = target: ptau 187-212 (A197) (human); assay: alanine-scan peptide ELISA, 1 ug/mL IgG
[27] = target: ptau 187-212 (A206) (human); assay: alanine-scan peptide ELISA, 1 ug/mL IgG
[28] = target: ptau 187-212 (pS202, pT205; as printed in Table 22) (human); assay: alanine-scan peptide ELISA, 1 ug/mL IgG
[29] = target: ptau 187-212 (A190) (human); assay: alanine-scan peptide ELISA, 1 ug/mL IgG
ptau 189-212 (human) = assay: peptide ELISA, 2 ug/mL IgG
ptau 188-209 (human) = assay: peptide ELISA, 2 ug/mL IgG
[30] = target: ptau 194-212 (pS202, pT205) (human); assay: peptide ELISA, 2 ug/mL IgG
ptau 192-212 (human) = assay: peptide ELISA, 2 ug/mL IgG
ptau 188-212 (human) = assay: peptide ELISA, 2 ug/mL IgG
[31] = target: ptau 187-212 (pY197, pT205; as printed in Table 11) (human); assay: peptide ELISA, 2 ug/mL IgG
ptau 192-215 (human) = assay: peptide ELISA
ptau 189-206 (human) = assay: peptide ELISA
tau 186-253 (human) = assay: peptide ELISA
ptau 188-206 (human) = assay: peptide ELISA
ptau 188-205 (human) = assay: peptide ELISA
tau 190-209 (human) = assay: peptide ELISA
ptau 192-209 (human) = assay: peptide ELISA
ptau 192-217 (human) = assay: peptide ELISA
ptau 189-209 (human) = assay: peptide ELISA

Chain of CBTAU-7.1 (antibody) (VH): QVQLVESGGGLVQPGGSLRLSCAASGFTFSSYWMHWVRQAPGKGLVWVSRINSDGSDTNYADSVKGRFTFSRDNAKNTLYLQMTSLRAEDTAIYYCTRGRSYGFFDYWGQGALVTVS
Chain of CBTAU-7.1 (antibody) (VL): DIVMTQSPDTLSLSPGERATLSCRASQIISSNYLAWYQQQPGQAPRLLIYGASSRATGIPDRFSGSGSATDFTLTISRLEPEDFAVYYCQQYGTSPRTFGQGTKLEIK
Chain of tau 194-212 (human) (peptide, as listed by the source): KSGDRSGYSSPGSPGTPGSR
Chain of tau 186-253 (human) (peptide, as listed by the source limits assumed): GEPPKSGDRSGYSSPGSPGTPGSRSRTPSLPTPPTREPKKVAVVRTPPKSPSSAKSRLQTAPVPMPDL

Substance: AT8 monoclonal antibody (Thermo, MN1020)
- OD450 (tau 194-212 (human)): < 0.3 od
- EC50 (read off the curve) [1]: 0.1 µg/mL
- OD450 [2]: > 1.5 od

Substance: CBTAU-7.1 (antibody)
- OD450 [3]: > 1.5 od
- OD450 [4]: 1 to 1.5 od
- OD450 [5]: > 1.5 od
- OD450 [6]: > 1.5 od
- OD450 [7]: > 1.5 od
- OD450 [8]: 1 to 1.5 od
- OD450 [9]: 1 to 1.5 od
- OD450 [10]: 0.5 to 1 od
- OD450 [11]: > 1.5 od
- OD450 [12]: > 1.5 od
- OD450 [13]: > 1.5 od
- OD450 [14]: 1 to 1.5 od
- OD450 [15]: > 1.5 od
- OD450 [16]: > 1.5 od
- OD450 [17]: > 1.5 od
- OD450 [18]: > 1.5 od
- OD450 [19]: 1 to 1.5 od
- OD450 [20]: > 1.5 od
- OD450 [21]: > 1.5 od
- OD450 [22]: > 1.5 od
- OD450 [23]: 0.5 to 1 od
- OD450 [24]: 1 to 1.5 od
- OD450 [25]: > 1.5 od
- OD450 [26]: > 1.5 od
- OD450 [27]: 0.5 to 1 od
- OD450 [28]: > 1.5 od
- OD450 [29]: > 1.5 od
- OD450 (ptau 189-212 (human)): 1 to 1.5 od
- OD450 (ptau 188-209 (human)): > 1.5 od
- OD450 [30]: 1 to 1.5 od
- OD450 (ptau 192-212 (human)): 1 to 1.5 od
- OD450 (ptau 188-212 (human)): 0.5 to 1 od
- OD450 [31]: 0.5 to 1 od
- OD450 (ptau 192-215 (human)): < 0.3 od
- OD450 (tau 194-212 (human)): < 0.3 od
- OD450 (ptau 189-206 (human)): < 0.3 od
- OD450 (tau 186-253 (human)): < 0.3 od
- OD450 (ptau 188-206 (human)): < 0.3 od
- OD450 (ptau 188-205 (human)): < 0.3 od
- OD450 (tau 190-209 (human)): < 0.3 od
- OD450 (ptau 192-209 (human)): < 0.3 od
- OD450 (ptau 192-217 (human)): < 0.3 od
- OD450 (ptau 189-209 (human)): < 0.3 od
- OD450 [2]: 1 to 1.5 od
